According to patent publication US20210206842A1 (NATIONAL RESEARCH COUNCIL OF CANADA, published 2021):

Assays:
[1] = biological target: T1, FC5DIE3IR recombinant protein; experiment: ELISA, hybridoma supernatant on coated purified FC5DIE3IR
T1 construct: Made in CHO-3E7 cells; also called FC5DIE31R; FC5DIE3R
Protocol: (§1) Screening. Hybridoma supernatants were screened by ELISA to detect specific binders. To this end, 96-well half-area plates (Costar #3690) were coated with 25 μl of FC5DIE3IR or FC5-VHH or FC5-hFc-1X0 at 5 μg/ml in PBS and incubated overnight at 4° C. Microplates were washed 3 times with PBS, blocked with PBS-BSA 1%, and 25 μl of hybridoma supernatants were added and incubated at 37° C., 5% CO₂ for 2 hours. […] After 4 washes with PBS-Tween 20 0.05%, 25 μl of a 1 mg/ml pNPP substrate solution was added and further incubated for one hour at 37° C.

[2] = biological target: T1, FC5DIE3IR recombinant protein; experiment: ELISA on coated FC5DIE3IR, serial dilutions of purified mAb, OD 405 nm; fit One site - Specific binding with Hill slope; apparent Kd in the unit of the concentration axis (nM), the table itself prints no unit
Protocol: as §1
(§2) Evaluation of apparent affinity in ELISA. Purified antibodies were assessed for their binding activity by ELISA in a dose-dependent binding curve. Serial 1/3 dilutions of purified mAbs starting at 120 nM were applied onto wells and ELISA was performed as described above (screening section). The data were analyzed with GraphPad Prism software using one-site specific binding-with Hill slope non-linear regression curve fit model to determine Bₘₐₓ (maximum specific binding) and Kdₐₚₚ (concentration needed to achieve a half-maximum binding at equilibrium) for each mAb tested.

VHH FC5 [3] = biological target: T2, VHH FC5; experiment: ELISA, hybridoma supernatant on coated purified FC5-VHH
T2 construct: put together from its FR and CDR entries; also called FC5-VHH; FC5 control
T2 sequence (VHH, as listed by the source): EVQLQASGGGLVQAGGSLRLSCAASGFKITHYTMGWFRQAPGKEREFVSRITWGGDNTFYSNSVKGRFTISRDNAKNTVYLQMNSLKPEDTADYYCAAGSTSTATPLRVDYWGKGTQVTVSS
Protocol: as §1

human Nav1.7 polypeptide [4] = biological target: T3, human Nav1.7 polypeptide (human, UniProt Q15858 1-1988); experiment: cell ELISA, hybridoma supernatant on live CHO cells expressing human Nav1.7, duplicate 2
T3 construct: also called hNav1.7; SCN9A
Protocol: (§3) Cell-ELISA. Sterile 96-well plates (Costar #3595) were pre-treated with 50 μl/well of branched polyethyleneimine (PEI, Sigma Cat #408727) at 25 μg/ml in PBS for 30 min at room temperature. PEI was removed and CHO-3E7 or hNAᵥ1.7-CHO (ChanTest cat #CT4003) were seeded at 6×10⁵ cells per well in FreeStyle F17 Expression Medium (Gibco Cat #A1383501) and incubated overnight at 37° C., 5% CO₂. Microplates were blocked with Starting block (Thermofisher Cat #37538) for 30 min at room temperature, and 50 μl of hybridoma supernatants were added and incubated at 4° C. for 3 h. […] After 10 washes with PBS, 50 μl of TMB substrate solution (Pierce Cat #34021) was added and further incubated for 60 min at room temperature.

VHH FC5 [5] = biological target: T2, VHH FC5; experiment: SPR, mAb 1G5 and FC5, 25 C
[6] = biological target: T1, FC5DIE3IR recombinant protein; experiment: SPR, mAb 1G5 and FC5DIE3IR, 25 C
human Nav1.7 polypeptide [7] = biological target: T3, human Nav1.7 polypeptide; experiment: cell-based or functional assay
[8] = biological target: T1, FC5DIE3IR recombinant protein; experiment: apparent KD (Kdapp), ELISA dose curve of purified mAb on coated FC5DIE3IR; 1G5 clone (IgG1), ELISA apparent KD
Protocol: as §1, §2

[9] = biological target: T1, FC5DIE3IR recombinant protein; experiment: ELISA on coated FC5DIE3IR, serial dilutions of purified mAb; fit One site - Specific binding with Hill slope
Protocol: as §1, §2

human Nav1.7 polypeptide [10] = biological target: T3, human Nav1.7 polypeptide; experiment: cell ELISA, hybridoma supernatant on live CHO cells expressing human Nav1.7, duplicate 1
Protocol: as §3

[11] = biological target: T1, FC5DIE3IR recombinant protein; experiment: SPR (Biacore T200), VHH flowed over immobilized FC5DIE3IR, steady state fit, 25 C
Excerpt: Surface Plasmon Resonance for VHH antibodies. […] Monomeric VHH fractions were collected and protein concentration determined by measuring A280 measurement. Using a Biacore T200 instrument (GE Healthcare), approximately 500-1000 RUs of FC5DIE3IR, FC5 and an irrelevant VHH (2A3-H4) were immobilized on a CM5 Series S sensor chip (GE Healthcare) at pH 4.0 using standard amine coupling according to the manufacturer's instructions (GE Healthcare). […] Surfaces were regenerated by washing with a 120 s pulse of 10 mM glycine pH 1.5. Data were analyzed with Biacore T200 Software v 3.0 and affinities determined using steady state binding or a 1:1 binding model.
Surface Plasmon Resonance (SPR).

human Nav1.7 polypeptide [12] = biological target: T3, human Nav1.7 polypeptide; experiment: cell-based or functional assay; remark: listed apart in the source
[13] = biological target: T1, FC5DIE3IR recombinant protein; experiment: SPR, multiple cycle kinetics, VHH over immobilized FC5DIE3IR
[14] = biological target: T1, FC5DIE3IR recombinant protein; experiment: SPR steady-state plot (Req against Conc up to 5e-6), VHH DI-D over immobilized FC5DIE3IR

Binder | ELISA signal (OD 405 nm) [1] | Kd [2] | ELISA signal (OD 405 nm) (VHH FC5 [3]) | cell ELISA signal (OD 450 nm) (human Nav1.7 polypeptide [4]) | Kd (VHH FC5 [5]) | koff (VHH FC5 [5]) | kon (VHH FC5 [5]) | Kd [6] | koff [6] | kon [6] | Reduction currents (%) at 1 µM (human Nav1.7 polypeptide [7]) | Kd [8] | Bmax [9] | cell ELISA signal (OD 450 nm) (human Nav1.7 polypeptide [10]) | Kd [11] | concentration response relationship (IC50), hNav1.7 currents (human Nav1.7 polypeptide [12]) | Kd [13] | Kd [14]
mAb 1G5 (antibody, V domains shown, also called negative control) VH: QVQLQQPGAELVKPGASVKLSCKASGYTFTSYWINWVKQRPGQGLEWIGNIYPGNSNTNYNEKFKSKATLTVDKSSSTAYMQLSSLTSEDSAVYYCARRYYYDYDDAMDYWGQGTSVTVSS VL: DIVLTQSPASLAVSLGQRATISCRASESVDSYGNGFMHWYQQKPGQPPKLLIYRASNLESGIPARVSGSGSRTDFTLTINPVEADDVATYYCQQSNEDPWTFGGGTKLEIK | 1.14 OD 405 nm | 5.04 nM | 0.096 OD 405 nm | 0.225 OD 450 nm | 58.8 nM | 0.017 s⁻¹ | 289000 M⁻¹ s⁻¹ | 186 nM | 0.0136 s⁻¹ | 72900 M⁻¹ s⁻¹ | 0.77% | 4.8 nM | 0.635 OD405 nm | 0.172 OD 450 nm | – | – | – | –
VHH DI-D (VHH, From the naive LAC-M library; soluble tagged monomer in protein ELISA, SPR and patch clamp; also called phage D; clone D; not shown: 6xHis and c-Myc tags on the soluble monomer) VHH: QVKLEESGGGLVQPGGSLKLSCVASGFAFSSAPMDWVRKAPGKDVEWLSTIESDQDHTIYYANSVKGRFTISRDDVQNILYLQMNDLKIEDTATYYCQKRGEKKTRGQGTQVTVSS | – | – | – | – | – | – | – | – | – | – | – | – | – | – | 1930 nM | 1480 nM | 2000 nM | 2040 nM
